This assay concerns the target T1, RBD of the S protein of SARS-CoV-2 (Omicron BA.1) (SARS-CoV-2 Omicron BA.1, strain).
T1 construct: also called RBD (Omicron BA.1)
Description: BLI; Octet RED96e; RBD (Omicron BA.1) immobilised on streptavidin (SA) biosensors; analyte 500-31.25 nM Nb67 or 100-3.125 nM Tr67 in 1x PBS, 0.02% Tween-20, 0.1% BSA; association 1 min, dissociation 3 min; 1:1 binding model. The conditions noted are these: both partners purified.

B1: nanobody Nb67 (VHH)
VHH: EVQLVESGGGLVQTGGSLRLSCALSGYTFSIFPTAWFRQAPGKEREFVAGIRWNGSTRDYTEYADFVKGRFTISRDNAKNMVYLQMISLKPEDTALYYCAASDGVIDGTNANAYRYWGQGTQVTVSS
notes: also called monovalent Nb67
With B1, binding was characterised by a dissociation constant (Kd) of 15.2 nM.

For orientation: Kd means the free concentration of one partner at which half of the binding sites on the other are occupied at equilibrium, for simple one-to-one binding. High values mean weaker binding, low ones tighter binding.

These data come from paper PMC10858482, “Computational design and engineering of self-assembling multivalent microproteins with therapeutic potential against SARS-CoV-2” (Journal of Nanobiotechnology, 2024).
